# Data as given in patent publication US6699969B1, “Assays for the detection of microtubule depolymerization inhibitors” (The Regents of the University of California, priority 1998, dated 2004).
# B1: p60: S. purpuratus katanin 60 kDa subunit, 516 a.a. AAA ATPase (SEQ ID NO: 1), baculovirus-expressed with N-terminal His(6) tag (protein, listed as Strongylocentrotus purpuratus)
# chain: MSVDEICENTKMGREYALLGNYETSLVYYQGVLQQIQKLLTSVHEPQRKHQWQTIRQELSQEYEHVKNITKTLNGFKSEPAAPEPAPNHGRAAPFSHHQHAAKPAAAEPARDPDVWPPPTPVDHRPSPPYQRAARKDPPRRSEPSKPANRAPGNDRGGRGPSDRRGDARSGGGGRGGARGSDKDKNRGGKSDKDKKAPSGEEGDEKKFDPAGYDKDLVENLERDIVQRNPNVHWADIAGLTEAKRLLEEAVVLPLWMPDYFKGIRRPWKGVLMVGPPGTGKTMLAKAVATECGTTFFNVSSASLTSKYHGESEKLVRLLFEMARFYAPSTIFIDEIDSICSKRGTGSEHEASRRVKSELLIQMDGVSGPSAGEESSKMVMVLAATNFPWDIDEALRRRLEKRIYIPLPEIDGREQLLRINLKEVPLADDIDLKSIAEKMDGYSGADITNVCRDASMMAMRRRIQGLRPEEIRHIPKEELNQPSTPADFLLALQKVSKSVGKEDLVKYMAWMEEFGSV
# modifications: N-terminal His6 tag; katanin p60 subunit
# B2: p80: S. purpuratus katanin 80 kDa subunit, 690 a.a. polypeptide with six WD40 repeats (SEQ ID NO: 2) (protein, listed as Strongylocentrotus purpuratus)
# chain: MATKRAWKLQELVAHSSNVNCLALGPMSGRVMVTGGEDKKVNLWAVGKQNCIISLSGHTSPVDSVKFNSSEELVVAGSQSGTMKIYDLEPAKIVRTLTGHRNSIRCMDFHPFGEFVASGSTDTNVKLWDVRRKGCIYTYKGHSDQVNMIKFSPDGKWLVTASEDTTIKLWDLTMGKLFQEFKNHTGGVTGIEFHPNEFLLASGSSDRTVQFWDLETFQLVSSTSPGASAVRSISFHPDGSYLFCSSQDMLHAFGWEPIRCFDTFSVFWGKVADTVIASTQLIGASFNATNVSVYVADLSRMSTTGIAQEPQSQPSKTPSGGAEEVPSKPLTASGRKNFVRERPHTTSSKQRQPDVKSEPERQSPTQDEGVKDDDATDIKDPDSYAKIFSPKTRVDHSPERNAQPFPAPLDVPGAQEPEPFKHPPKPAAAAAVAPVSRAPAPSASDWQPAQANPAPNRVPAATKPVPAQEVAPSRKPDPISTIIPSDRNKPANLDMDAFLPPAHAQQAPRVNAPASRKQSDSERIEGLRKGHDSMCQVLSSRHRNLDVVRAIWTAGDAKTSVESVVNMKDQAILVDILNIMLLKKSLWNLDMCVVVLPRLKELLSSKYENYVHTSCACLKLILKNFTSLFNQNIKCPPSGIDITREERYNKCSKCYSYLIATRGYVEEKQHVSGKLGSSFRELHLLLDQLE
# modifications: katanin p80 subunit
# B3: p97: AAA ATPase cited for comparison (Peters et al. 1992) (protein, UniProt P23787 1-805, looked up)
# Transitional endoplasmic …: MASGSDTKSDDLSTAILKQKSRPNRLIVDESINEDNSMVSLSQAKMDELQLFRGDTVLLKGKKRREAVCIVLSDDTCSDEKIRMNRVVRNNLRVRLGDVISIQPCPDVKYGKRVHVLPIDDTVEGITGNLFEVYLKPYFLEAYRPIRKGDIFLVRGGMRAVEFKVVETDPSPYCIVAPDTVIHCEGEPIKREDEEESLNEVGYDDIGGCRKQLAQIKEMVELPLRHPALFKAIGVKPPRGILLYGPPGTGKTLIARAVANETGAFFFLINGPEIMSKLAGESESNLRKAFEEAEKNAPAIIFIDELDAIAPKREKTHGEVERRIVSQLLTLMDGLKQRAHVIVMAATNRPNSIDPALRRFGRFDREVDIGIPDSTGRLEILQIHTKNMKLSDDVDLEQVANETHGHVGADLAALCSEAALQAIRKKMDLIDLEDETIDAEVMNSLAVTMDDFRWALSQSNPSALRETVVEVPQVTWEDIGGLEDVKRELQELVQYPVEHPDKFLKFGMTPSKGVLFYGPPGCGKTLLAKAIANECQANFISIKGPELLTMWFGESEANVREIFDKARQAAPCVLFFDELDSIAKARGGNIGDGGGAADRVINQILTEMDGMSIKKNVFIIGATNRPDIIDPAILRPGRLDQLIYIPLPDEKSRMAILKANLRKSPVAKDVDVDFLAKMTNGFSGADLTEICQRACKLAIRESIENEIRRERDRQTNPSAMEVEEDDPVPEIRRDHFEEAMRFARRSVSDNDIRKYEMFAQTLQQSRGFGSFRFPAGGQSGAGPSPGAGGGSGGGHFTEEDDDLYG
# What was measured:
# [1] = ATPase assay (modified malachite green method); assay type: biochemical
# Protocol: (§1) ATPase activity was measured by a modified malachite green method (Kodama et al. (1986) J. Biochem. 99: 1465-1472). ATPase reactions of 50-100 μL were carried out in a buffer previously used for measuring the ATPase activity of native katanin [20 mM K-HEPES pH 8.0, 25 mM K-Glutamate, 2 mM MgCl2, 10% glycerol (v/v), 0.02% Triton X-100 (w/v), 1 mg/ml BSA] (McNally and Vale (1993) Cell, 75: 419-429), except that soybean trypsin inhibitor (SBTI) was replaced by BSA as a carrier protein because SBTI increased background phosphate contamination. An ATP regenerating system consisting of 0.5-1.0 mM phospho-enol pyruvate and 2U pyruvate kinase was included to minimize the inhibition by ADP observed previously for native katanin (McNally and Vale (1993) Cell, 75; 419-429). Microtubules were prepared from bovine brain tubulin (Hyman el al. (1 990) Meth. Enzymol. 196: 303-319; Williams and Lee (1982) Meth Enzymol. 85B: 376-385). After assembly, microtubules were sedimented (230,000×g; 10 min), resuspended in ATPase buffer lacking BSA, and the polymers were resuspended by repeated passage through a 27 gauge needle. Microtubule concentration was determined by measuring the absorbance at 275 nm in 6M guanidine HCl by using a molecular mass of 110 kDa and an extinction coefficient of 1.03 ml*mg^−1*cm^−1 (Hackney (1988) Proc. Natl. Acad. Sci. USA, 85: 6314-6318). […]
# [2] = tested on: Taxol-stabilized, rhodamine-labeled microtubules; experiment: Microscope-based microtubule severing assay; assay type: biochemical
# Protocol: Microscope-based severing assays were performed using previously published procedures (McNally and Vale (1993) Cell, 75: 419-429), except that microtubules were immobilized by first perfusing flow cells with a bacterially expressed kinesin mutant that binds strongly to microtubules but is unable to hydrolyze ATP (K560, G234A mutant; R. Vale and E. Taylor, unpublished results). Assays were performed in 20 mM Hepes (pH 7.5), 2 mM MgCl2, 1 mM ATP with an oxygen scavenger system consisting of glucose oxidase (220 μg/ml), catalase (36 μg/ml), glucose (22.5 mM), and 2-mercaptoethanol (71.5 mM). Images were captured using a cooled, slow-scan CCD (Photometerics) and processed using Adobe Photoshop.
# [3] = tested on: microtubules; experiment: DAPI fluorescence microtubule disassembly (severing) assay; assay type: biochemical, bovine; settings: 2 μM microtubules, FIG. 5C
# Protocol: as §1, with “Microtubules were prepared from bovine brain tubulin (Hyman el al. (1 990) Meth. Enzymol. 196: 303-319; Williams and Lee (1982) Meth Enzymol. 85B: 376-385). After assembly, microtubules were sedimented (230,000×g; 10 min), resuspended in ATPase buffer lacking BSA, and the polymers were resuspended by repeated passage through a 27 gauge needle.” left out
# DAPI severing assays were performed using conditions where the change in fluorescence intensity was linear with the amount of tubulin polymer added (Heusele et al. (1987) Eur. J. Biochem. 165: 613-620). […] The reaction volume was 80 μL, and. fluorescence intensity was measured by exciting at 370 nm and measuring the emission at 450 nm using a model 8100 fluorimeter. […]
# [4] = literature values; cited from earlier work
molecule,measurement,setting,value
B1,microtubule concentration at peak stimulation of ATP turnover,[1],~2 μM tubulin
same,time until microtubules were completely disassembled,[2]; 0.1 μM protein,5 min
B2,ATPase activity,[1]; baculovirus-expressed subunit alone,no detectable ATPase activity
same,microtubule severing,[2]; concentrations 5-fold higher than those used for p60 (0.5 μM),unable to sever microtubules
same,change in DAPI fluorescence,[3],did not cause a change in fluorescence
B3,ATPase activity of other AAA proteins,[4],1 ATP/sec
